Paper PMC5616090

Tests used:
Q99816 [1] = test: differential scanning calorimetry; settings: other: differential scanning calorimetry
Q99816 [2] = test: circular dichroism thermal unfolding; settings: other: circular dichroism thermal unfolding
[3] = biological target: Tumor susceptibility gene-101 coiled coil domain (TSG101cc), residues 229-304 (human) (UniProt Q99816); test: differential scanning calorimetry
[4] = biological target: Tumor susceptibility gene-101 coiled coil domain (TSG101cc), residues 229-304 (human) (UniProt Q99816); test: circular dichroism thermal unfolding

Chain of Tumor susceptibility gene-101 coiled coil domain (TSG101cc), residues 229-304 (Q99816 2-390): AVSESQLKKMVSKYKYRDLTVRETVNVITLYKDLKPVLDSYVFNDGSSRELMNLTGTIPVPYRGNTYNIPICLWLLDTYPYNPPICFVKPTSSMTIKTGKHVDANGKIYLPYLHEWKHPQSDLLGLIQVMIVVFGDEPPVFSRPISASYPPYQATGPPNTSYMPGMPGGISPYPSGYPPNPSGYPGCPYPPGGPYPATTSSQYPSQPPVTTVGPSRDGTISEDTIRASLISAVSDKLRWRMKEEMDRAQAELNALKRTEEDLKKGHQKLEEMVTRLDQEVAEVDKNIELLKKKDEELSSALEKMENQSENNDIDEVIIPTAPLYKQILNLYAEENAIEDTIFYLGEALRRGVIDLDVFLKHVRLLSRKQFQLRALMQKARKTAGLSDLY

Row | stoichiometry N [3] | stoichiometry N [4] | Substance | dH (unfolding and dissociation of the tetramer, per mol of monomer) (Q99816 [1]) [kcal/mol] | dH (unfolding and dissociation of the tetramer, per mol of monomer) (Q99816 [2]) [kcal/mol]
1 |  |  | Tumor susceptibility gene-101 coiled coil domain (TSG101cc), residues 229-304 | 45.6 | 56.5
2 | 4 | 4 | Tumor susceptibility gene-101 coiled coil domain (TSG101cc), residues 229-304 (from UniProt Q99816 229-304) (domain or fragment) |  | 
